Laboratory results taken from patent US20250262210A1 (TRUSTEES OF COLUMBIA UNIVERSITY IN THE CITY OF NEW YORK, published 2025).

How the values were obtained:
[1] = target: T1, VPS18 (human, UniProt Q9P253 2-973); test: IP/MS, LZTR1 wild type-FLAG, U87
T1 sequence (looked up): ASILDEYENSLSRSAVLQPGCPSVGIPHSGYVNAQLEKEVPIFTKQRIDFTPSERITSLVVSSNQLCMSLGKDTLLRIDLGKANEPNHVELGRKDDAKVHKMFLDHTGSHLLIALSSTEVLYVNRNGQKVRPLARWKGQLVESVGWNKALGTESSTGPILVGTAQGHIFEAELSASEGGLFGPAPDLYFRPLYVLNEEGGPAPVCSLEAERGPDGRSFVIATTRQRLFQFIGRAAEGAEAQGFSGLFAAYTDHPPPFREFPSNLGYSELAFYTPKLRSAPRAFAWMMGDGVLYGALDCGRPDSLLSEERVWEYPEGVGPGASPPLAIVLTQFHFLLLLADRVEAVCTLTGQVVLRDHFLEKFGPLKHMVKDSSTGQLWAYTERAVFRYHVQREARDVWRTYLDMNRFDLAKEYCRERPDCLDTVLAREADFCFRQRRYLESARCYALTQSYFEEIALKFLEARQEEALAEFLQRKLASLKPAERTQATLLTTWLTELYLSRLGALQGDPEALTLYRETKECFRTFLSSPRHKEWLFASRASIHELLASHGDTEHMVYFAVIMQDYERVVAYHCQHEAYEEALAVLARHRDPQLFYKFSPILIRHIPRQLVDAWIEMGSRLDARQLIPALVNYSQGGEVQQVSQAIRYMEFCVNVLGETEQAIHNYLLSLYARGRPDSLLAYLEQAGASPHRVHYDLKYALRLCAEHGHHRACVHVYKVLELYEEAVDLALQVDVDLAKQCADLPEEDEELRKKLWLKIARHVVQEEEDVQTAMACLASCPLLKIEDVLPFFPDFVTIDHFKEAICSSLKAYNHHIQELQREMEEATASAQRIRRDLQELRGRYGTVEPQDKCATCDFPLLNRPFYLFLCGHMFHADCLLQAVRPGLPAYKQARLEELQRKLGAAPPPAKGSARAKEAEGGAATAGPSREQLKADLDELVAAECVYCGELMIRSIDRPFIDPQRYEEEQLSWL
How it was run: (§1)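 Read-out: spectral counts from LC-MS/MS (Orbitrap Fusion) after MaxQuant identification. Variable modifications were Met oxidation, protein N-terminal acetylation and N/Q deamidation.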

[2] = target: T2, RANBP6 (human, UniProt O60518 2-1105); test: IP/MS, LZTR1 wild type-FLAG, U87
T2 sequence (looked up): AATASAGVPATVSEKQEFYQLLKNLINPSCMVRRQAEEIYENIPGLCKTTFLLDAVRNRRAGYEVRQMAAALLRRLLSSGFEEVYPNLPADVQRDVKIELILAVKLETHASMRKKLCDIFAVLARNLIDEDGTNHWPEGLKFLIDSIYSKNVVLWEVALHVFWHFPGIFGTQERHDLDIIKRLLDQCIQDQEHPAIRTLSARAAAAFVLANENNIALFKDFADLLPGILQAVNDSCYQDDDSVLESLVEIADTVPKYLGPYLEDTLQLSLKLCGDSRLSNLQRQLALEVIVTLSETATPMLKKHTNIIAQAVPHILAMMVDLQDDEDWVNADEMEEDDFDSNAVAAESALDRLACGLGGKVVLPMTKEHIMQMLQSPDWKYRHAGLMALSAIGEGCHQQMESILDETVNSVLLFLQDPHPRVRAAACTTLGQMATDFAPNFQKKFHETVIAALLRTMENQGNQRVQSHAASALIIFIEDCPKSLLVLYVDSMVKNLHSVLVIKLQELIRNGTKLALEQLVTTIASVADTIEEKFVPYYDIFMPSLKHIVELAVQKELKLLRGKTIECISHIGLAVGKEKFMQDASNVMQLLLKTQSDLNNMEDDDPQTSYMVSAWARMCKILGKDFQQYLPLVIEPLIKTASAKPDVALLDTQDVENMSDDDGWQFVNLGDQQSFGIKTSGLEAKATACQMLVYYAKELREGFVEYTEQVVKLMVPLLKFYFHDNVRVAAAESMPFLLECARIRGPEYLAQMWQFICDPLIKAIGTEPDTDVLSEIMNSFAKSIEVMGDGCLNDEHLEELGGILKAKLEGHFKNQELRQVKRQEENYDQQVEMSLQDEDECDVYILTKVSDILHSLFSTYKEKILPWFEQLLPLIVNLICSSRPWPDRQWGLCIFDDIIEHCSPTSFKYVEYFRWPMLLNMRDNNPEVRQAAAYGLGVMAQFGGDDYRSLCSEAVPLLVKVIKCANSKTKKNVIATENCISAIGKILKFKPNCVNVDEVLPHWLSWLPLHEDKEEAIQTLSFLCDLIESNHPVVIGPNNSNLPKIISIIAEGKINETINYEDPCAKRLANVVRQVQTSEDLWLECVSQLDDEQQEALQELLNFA
How it was run: as §1

binding result [1]: binds | binding result [2]: binds
B1: LZTR1-FLAG (other, human, UniProt Q8N653 1-840, looked up)
chain: MAGPGSTGGQIGAAALAGGARSKVAPSVDFDHSCSDSVEYLTLNFGPFETVHRWRRLPPCDEFVGARRSKHTVVAYKDAIYVFGGDNGKTMLNDLLRFDVKDCSWCRAFTTGTPPAPRYHHSAVVYGSSMFVFGGYTGDIYSNSNLKNKNDLFEYKFATGQWTEWKIEGRLPVARSAHGATVYSDKLWIFAGYDGNARLNDMWTIGLQDRELTCWEEVAQSGEIPPSCCNFPVAVCRDKMFVFSGQSGAKITNNLFQFEFKDKTWTRIPTEHLLRGSPPPPQRRYGHTMVAFDRHLYVFGGAADNTLPNELHCYDVDFQTWEVVQPSSDSEVGGAEVPERACASEEVPTLTYEERVGFKKSRDVFGLDFGTTSAKQPTQPASELPSGRLFHAAAVISDAMYIFGGTVDNNIRSGEMYRFQFSCYPKCTLHEDYGRLWESRQFCDVEFVLGEKEECVQGHVAIVTARSRWLRRKITQARERLAQKLEQEAAPVPREAPGVAAGGARPPLLHVAIREAEARPFEVLMQFLYTDKIKYPRKGHVEDVLLIMDVYKLALSFQLCRLEQLCRQYIEASVDLQNVLVVCESAARLQLSQLKEHCLNFVVKESHFNQVIMMKEFERLSSPLIVEIVRRKQQPPPRTPLDQPVDIGTSLIQDMKAYLEGAGAEFCDITLLLDGHPRPAHKAILAARSSYFEAMFRSFMPEDGQVNISIGEMVPSRQAFESMLRYIYYGEVNMPPEDSLYLFAAPYYYGFYNNRLQAYCKQNLEMNVTVQNVLQILEAADKTQALDMKRHCLHIIVHQFTKVSKLPTLRSLSQQLLLDIIDSLASHISDKQCAELGADI
notes: Expressed in HEK 293T, HeLa or U87 cells; used as cell lysate; also called LZTR1 wild type-FLAG; LZTR1 WT; not shown: FLAG tag at the C-terminus
